This note sets out measurements from publication PMC8597016.

The term Kd denotes the equilibrium constant for the complex coming apart. Low readings indicate a tighter complex, high ones a looser complex.

The test deals with Biotinylated CD11b I domain (human). The test is described as follows: BLI. On the technique in general: Biolayer interferometry detects binding as a change in optical thickness at a sensor tip.

For the substance CC30 LukAB (complex), the dissociation constant Kd was determined as 214 nM.
On to CC8 LukAB (complex), for which the equilibrium dissociation constant (Kd) turned out to be 9.41 nM.
